Results reported in paper PMC9712689 (Communications Biology, 2022).

Key:
Test in all cases: MST
Conditions in all cases: both partners purified
MltA = biological target: T1, MltA (P. aeruginosa PAO1, UniProt Q9I4B6 1-385)
T1 sequence (looked up): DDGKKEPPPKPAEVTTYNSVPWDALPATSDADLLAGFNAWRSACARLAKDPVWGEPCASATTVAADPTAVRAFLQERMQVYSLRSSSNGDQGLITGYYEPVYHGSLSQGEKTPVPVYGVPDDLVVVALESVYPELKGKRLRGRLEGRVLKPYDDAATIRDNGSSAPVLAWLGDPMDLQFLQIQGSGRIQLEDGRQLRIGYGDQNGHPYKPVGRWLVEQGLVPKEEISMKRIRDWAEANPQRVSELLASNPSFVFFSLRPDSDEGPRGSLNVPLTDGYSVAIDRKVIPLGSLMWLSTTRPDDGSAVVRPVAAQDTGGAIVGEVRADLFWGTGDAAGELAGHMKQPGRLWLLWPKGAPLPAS

PBP1a = PBP1a (P. aeruginosa PAO1, UniProt Q07806 27-822)
Chain of PBP1a (Q07806 27-822): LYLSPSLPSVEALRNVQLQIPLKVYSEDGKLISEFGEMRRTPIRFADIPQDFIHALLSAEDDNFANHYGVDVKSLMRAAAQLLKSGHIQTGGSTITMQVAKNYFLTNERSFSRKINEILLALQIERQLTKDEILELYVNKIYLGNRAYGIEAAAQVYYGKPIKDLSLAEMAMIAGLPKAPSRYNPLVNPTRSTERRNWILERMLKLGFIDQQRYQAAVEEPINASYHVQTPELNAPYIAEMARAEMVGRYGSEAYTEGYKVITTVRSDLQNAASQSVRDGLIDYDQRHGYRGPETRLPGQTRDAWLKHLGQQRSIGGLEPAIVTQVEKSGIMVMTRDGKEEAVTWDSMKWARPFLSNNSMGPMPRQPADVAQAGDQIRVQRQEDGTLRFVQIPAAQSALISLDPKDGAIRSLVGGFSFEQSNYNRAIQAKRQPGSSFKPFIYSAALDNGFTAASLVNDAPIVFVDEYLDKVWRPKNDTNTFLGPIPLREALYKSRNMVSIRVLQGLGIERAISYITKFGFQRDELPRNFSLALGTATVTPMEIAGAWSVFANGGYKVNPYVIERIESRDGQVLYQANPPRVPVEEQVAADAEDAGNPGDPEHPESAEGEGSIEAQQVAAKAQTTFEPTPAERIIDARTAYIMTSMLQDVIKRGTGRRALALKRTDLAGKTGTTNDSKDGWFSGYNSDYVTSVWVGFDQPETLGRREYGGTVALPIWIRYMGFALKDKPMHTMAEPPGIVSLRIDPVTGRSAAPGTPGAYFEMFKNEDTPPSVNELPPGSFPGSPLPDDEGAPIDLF

MltB = biological target: T2, MltB (P. aeruginosa PAO1, UniProt Q9HVX3 1-367)
T2 sequence (looked up): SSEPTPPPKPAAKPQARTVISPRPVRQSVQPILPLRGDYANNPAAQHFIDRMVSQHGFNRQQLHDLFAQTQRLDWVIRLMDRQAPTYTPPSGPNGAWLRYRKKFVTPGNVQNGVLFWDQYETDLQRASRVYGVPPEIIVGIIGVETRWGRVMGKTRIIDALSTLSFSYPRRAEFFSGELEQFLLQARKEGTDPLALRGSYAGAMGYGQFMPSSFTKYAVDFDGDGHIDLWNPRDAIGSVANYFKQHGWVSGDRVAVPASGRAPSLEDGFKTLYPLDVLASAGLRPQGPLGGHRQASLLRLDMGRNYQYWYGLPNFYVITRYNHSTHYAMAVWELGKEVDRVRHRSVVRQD

MltF = MltF (P. aeruginosa PAO1, UniProt Q9HXN1 33-490)
Chain of MltF (Q9HXN1 33-490): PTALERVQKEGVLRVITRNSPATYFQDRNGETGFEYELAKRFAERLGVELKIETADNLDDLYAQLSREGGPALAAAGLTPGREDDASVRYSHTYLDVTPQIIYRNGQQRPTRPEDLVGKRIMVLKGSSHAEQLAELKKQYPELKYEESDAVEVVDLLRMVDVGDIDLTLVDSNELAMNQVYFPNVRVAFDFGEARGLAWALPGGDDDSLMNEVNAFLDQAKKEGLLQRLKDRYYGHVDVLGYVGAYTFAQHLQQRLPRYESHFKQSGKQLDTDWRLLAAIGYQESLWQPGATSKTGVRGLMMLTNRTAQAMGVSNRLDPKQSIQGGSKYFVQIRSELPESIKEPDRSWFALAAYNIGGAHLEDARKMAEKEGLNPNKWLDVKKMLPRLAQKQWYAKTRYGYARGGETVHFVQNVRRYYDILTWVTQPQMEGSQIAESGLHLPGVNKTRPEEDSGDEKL

SltB2 = biological target: T3, SltB2 (P. aeruginosa PAO1, UniProt Q9I4G6 1-398)
T3 sequence (looked up): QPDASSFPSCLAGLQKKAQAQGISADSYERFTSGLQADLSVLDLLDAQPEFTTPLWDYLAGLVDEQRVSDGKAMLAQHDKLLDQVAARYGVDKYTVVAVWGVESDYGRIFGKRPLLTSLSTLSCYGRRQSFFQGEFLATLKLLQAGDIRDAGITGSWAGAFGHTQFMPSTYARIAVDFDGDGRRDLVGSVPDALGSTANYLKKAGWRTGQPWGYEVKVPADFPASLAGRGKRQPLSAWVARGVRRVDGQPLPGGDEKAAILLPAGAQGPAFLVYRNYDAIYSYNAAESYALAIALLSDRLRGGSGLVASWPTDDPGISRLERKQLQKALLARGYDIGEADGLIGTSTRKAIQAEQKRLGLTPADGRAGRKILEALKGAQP

MltD = biological target: T4, MltD (P. aeruginosa PAO1, UniProt Q9I2T2 1-534)
T4 sequence (looked up): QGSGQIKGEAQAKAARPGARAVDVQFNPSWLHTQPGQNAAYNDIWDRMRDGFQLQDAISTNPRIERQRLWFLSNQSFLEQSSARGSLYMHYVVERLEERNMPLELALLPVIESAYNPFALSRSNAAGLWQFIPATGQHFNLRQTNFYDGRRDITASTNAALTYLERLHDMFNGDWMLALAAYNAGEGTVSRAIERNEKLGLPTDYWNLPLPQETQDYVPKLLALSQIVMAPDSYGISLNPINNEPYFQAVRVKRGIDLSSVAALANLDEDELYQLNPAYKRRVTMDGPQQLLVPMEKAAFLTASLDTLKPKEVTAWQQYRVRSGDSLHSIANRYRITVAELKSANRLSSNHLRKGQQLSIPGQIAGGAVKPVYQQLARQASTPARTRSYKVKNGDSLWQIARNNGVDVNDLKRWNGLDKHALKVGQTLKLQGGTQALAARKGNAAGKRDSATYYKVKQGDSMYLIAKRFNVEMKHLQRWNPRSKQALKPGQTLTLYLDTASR

PBP4 = biological target: T5, PBP4 (P. aeruginosa PAO1, UniProt Q9HZG1 1-476)
T5 sequence (looked up): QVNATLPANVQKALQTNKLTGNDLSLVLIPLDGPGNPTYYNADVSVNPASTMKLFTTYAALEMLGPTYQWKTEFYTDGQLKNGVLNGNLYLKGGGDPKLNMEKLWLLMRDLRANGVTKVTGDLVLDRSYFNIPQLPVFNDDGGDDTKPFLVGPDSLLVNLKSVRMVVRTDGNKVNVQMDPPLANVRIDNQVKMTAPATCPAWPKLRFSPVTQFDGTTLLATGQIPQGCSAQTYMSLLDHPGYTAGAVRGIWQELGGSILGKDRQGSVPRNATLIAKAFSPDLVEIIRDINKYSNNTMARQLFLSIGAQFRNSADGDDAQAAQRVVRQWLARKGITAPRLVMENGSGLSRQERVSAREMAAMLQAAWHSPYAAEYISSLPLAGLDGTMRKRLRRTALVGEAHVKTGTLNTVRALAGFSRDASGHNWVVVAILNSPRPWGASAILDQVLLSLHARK

TypA = biological target: T6, TypA (P. aeruginosa PAO1, UniProt Q9HU67 1-605)
T6 sequence (looked up): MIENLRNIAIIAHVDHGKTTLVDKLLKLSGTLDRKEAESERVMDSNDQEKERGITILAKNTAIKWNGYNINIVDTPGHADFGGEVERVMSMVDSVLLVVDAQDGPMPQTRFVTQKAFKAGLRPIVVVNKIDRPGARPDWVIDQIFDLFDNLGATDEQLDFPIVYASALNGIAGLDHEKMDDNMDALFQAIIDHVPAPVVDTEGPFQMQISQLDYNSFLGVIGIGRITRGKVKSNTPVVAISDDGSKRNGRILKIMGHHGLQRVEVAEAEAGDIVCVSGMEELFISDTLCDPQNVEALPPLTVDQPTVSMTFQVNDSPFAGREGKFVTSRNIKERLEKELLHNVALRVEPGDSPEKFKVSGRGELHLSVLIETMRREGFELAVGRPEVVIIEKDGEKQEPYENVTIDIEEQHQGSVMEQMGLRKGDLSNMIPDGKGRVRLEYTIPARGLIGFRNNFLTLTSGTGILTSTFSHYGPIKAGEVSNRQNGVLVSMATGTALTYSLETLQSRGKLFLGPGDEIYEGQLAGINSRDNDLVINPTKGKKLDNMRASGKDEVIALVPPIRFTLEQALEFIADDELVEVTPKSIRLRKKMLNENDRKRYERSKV

MltF2 = biological target: T7, MltF2 (P. aeruginosa PAO1, UniProt Q9HZY1 1-476)
T7 sequence (looked up): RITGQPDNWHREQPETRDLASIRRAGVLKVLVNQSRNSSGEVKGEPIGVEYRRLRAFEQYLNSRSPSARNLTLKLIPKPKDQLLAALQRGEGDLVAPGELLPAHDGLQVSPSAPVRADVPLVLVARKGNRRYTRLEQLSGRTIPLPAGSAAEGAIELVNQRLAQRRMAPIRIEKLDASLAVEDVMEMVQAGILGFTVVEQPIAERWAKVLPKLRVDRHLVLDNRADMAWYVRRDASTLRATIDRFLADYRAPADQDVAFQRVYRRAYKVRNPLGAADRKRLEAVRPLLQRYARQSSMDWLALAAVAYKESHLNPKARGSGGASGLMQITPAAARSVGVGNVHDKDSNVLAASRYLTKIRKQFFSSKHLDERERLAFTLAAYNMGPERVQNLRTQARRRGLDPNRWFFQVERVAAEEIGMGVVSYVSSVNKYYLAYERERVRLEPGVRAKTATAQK

B1: RlpA-Δ32, fluorescently labeled (domain or fragment)
chain: PQQPARQAGISGPGDYSRPHRDGAPWWDVDVSRIPDAVPMPHNGSVKANPYTVLGKTYYPMNDARAYRMVGTASWYGTKFHGQATANGETYDLYGMTAAHKTLPLPSYVRVTNLDNGKSVIVRVNDRGPFYSDRVIDLSFAAAKKLGYAETGTARVKVEGIDPVQWWAQRGRPAPMVLAQPKQAVAQAAPAAAQTQAVAMAQPIETYTPPPAQHAAAVLPVQIDSKKNASLPADGLYLQVGAFANPDAAELLKAKLSGVTAAPVFISSVVRNQQILHRVRLGPIGSADEVSRTQDSIRVANLGQPTLVRPD
modifications: amine reactive RED-NHS dye
notes: source: E. coli BL21-star (DE3), purified (Ni-NTA), labelled with RED-NHS dye
Q: B1 was tested. Which Kd (MltA) did it give?
A: Its Kd is 67 nM.

Q: What about the Kd (PBP1a) of the same binder?
A: The Kd was 92 nM.

Q: What about the Kd (MltB) of the same binder?
A: Its Kd is 96 nM.

Q: What about the Kd (MltF) of the same binder?
A: The Kd was 101 nM.

Q: And the Kd (SltB2)?
A: The Kd was 110 nM.

Q: What about the Kd (MltD) of the same binder?
A: The Kd was 240 nM.

Q: And the Kd (PBP4)?
A: The Kd was 550 nM.

Q: And the Kd (TypA)?
A: Its Kd is 1000 nM.

Q: What about the Kd (MltF2) of the same binder?
A: The Kd was 12 nM.
